The text below walks through data of patent publication US10870874B2, “Binding fusion proteins, binding fusion protein-drug conjugates, XTEN-drug conjugates and methods of making and using same” (Amunix Pharmaceuticals, Inc., priority 2010, dated 2020).

One data set deals with T1, human IL6R (Homo sapiens, UniProt P08887).
T1 sequence (P08887 20-468): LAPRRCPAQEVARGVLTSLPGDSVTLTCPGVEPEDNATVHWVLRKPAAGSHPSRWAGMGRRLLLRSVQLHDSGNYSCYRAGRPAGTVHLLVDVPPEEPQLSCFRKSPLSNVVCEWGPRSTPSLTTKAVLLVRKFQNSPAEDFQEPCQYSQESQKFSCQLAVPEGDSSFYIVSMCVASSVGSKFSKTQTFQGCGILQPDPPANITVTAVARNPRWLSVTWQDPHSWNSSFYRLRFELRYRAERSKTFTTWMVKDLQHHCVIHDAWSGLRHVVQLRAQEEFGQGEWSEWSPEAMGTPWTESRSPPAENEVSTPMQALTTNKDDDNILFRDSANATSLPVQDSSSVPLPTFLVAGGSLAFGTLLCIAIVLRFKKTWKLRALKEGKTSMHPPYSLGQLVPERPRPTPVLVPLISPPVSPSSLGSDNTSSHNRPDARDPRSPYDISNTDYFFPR
Kind of data set: IL6R binding ELISA of aIL6R-XTEN. Particulars: 100 ng/well human IL6R. The method, then: E. coli from a single colony of AC342 was grown to saturation in 2×YT media. 10 mL of this saturated overnight culture was used to inoculate a 500 ml of 2×YT media and this culture was grown to an OD600 between 0.4 and 0.5 at 37° C., transferred to 26° C. and induced with 1 mM IPTG. The culture was then grown overnight (15-17 hours) and harvested by centrifugation at 10,000 rpm in a Sorvall SLA-3000 rotor. The pellets were stored until use at −80° C. Cell paste was resuspended in 25 ml of lysis buffer (20 mM sodium acetate, 50 mM sodium chloride, pH 4.5), lysed by sonication, and clarified by spinning at 10,000 rpm at 4° C. in a Sorvall SS34 rotor. The samples were further acidified by the addition of acetic acid. […] IL6R binding was assessed in an ELISA as follows: the plates were coated with either 100 ng/well of human IL6R for 1 hour at 37° C., blocked with 3% BSA in PBS for one hour at 37° C., bound by adding the AC342 dilution series to the plate and incubating for one hour at room temperature, washed 3 times with PBST, detected with biotinylated anti-XTEN antibody for one hour at room temperature, washed three times with PBST, amplified with streptavidin-HRP for one hour at room temperature, washed three times with PBST, developed with TMB substrate and read at 405 nm using a plate reader.

Another data set addresses human CD40 (Homo sapiens, UniProt P25942). Kind of data set: CD40 binding ELISA with cleared lysates of aCD40-XTEN. The following applies: from EC50 of lysate dilution and an estimate concentration of 10 μM in the lysate. The method, then:
Two aCD40-XTEN constructs, AC384 and AC385, were expressed by growing a culture to saturation in 2×YT and then using this culture to inoculate a 500 ml flask of 2×YT. This second flask was grown to an OD600 of between 0.6 and 1.0 at 37° C., transferred to 26° C., and induced with 1 mM IPTG. The induction was left overnight and cell paste harvested by centrifugation the flowing morning. These pellets were stored as EP220 and EP221. Small samples were taken from the pellet, lysed using bugbuster, and clarified using a microcentrifuge. These cleared lysates were the serially diluted by a factor of three in PBST, for using in a binding ELISA. The ELISA was performed as follows: The plates were coated with either 100 ng/well of human CD40-Fc fusion for 1 hour at 37° C., blocked with 3% BSA in PBS for one hour at 37° C., bound by adding the AC384 or AC385 dilution series to the plate and incubating for one hour at room temperature, washed 3 times with PBST, detected with biotinylated anti-XTEN antibody for one hour at room temperature, washed three times with PBST, amplified with streptavidin-HRP for one hour at room temperature, washed three times with PBST, developed with TMB substrate and read at 405 nm using a plate reader. The ELISA values were plotted versus dilution of lysate plotted on a log scale and an EC50 value determined, with nearly identical results (FIG. 27).

A short description of data set [1]: Stability of XTEN_AE864-GFP incubated in rat kidney lysate. The class given is in vitro ADME. The following applies: 37° C., over 3 days. The procedure:
(§1) FIG. 16A-FIG. 16C show an SDS-PAGE gel of samples from a stability study of the fusion protein of XTEN_AE864 fused to the N-terminus of GFP.
Samples were withdrawn at time 0, Day 1 and Day 7 and analyzed by SDS PAGE followed by detection using Western analysis and detection with antibodies against GFP as shown in FIG. 16A-FIG. 16C. […] The in vivo stability of the fusion protein was tested in plasma samples wherein the GFP_AE864 was immunoprecipitated and analyzed by SDS PAGE as described above.

Data set [2] can be described thus: In vivo stability of GFP-XTEN in plasma samples after injection. Details: species or system cynomolgus monkeys. The following applies: samples up to 7 days after injection. The method, then:
as §1
(§2) A fusion protein containing XTEN_AE864 fused to the N-terminus of GFP was incubated in monkey plasma and rat kidney lysate for up to 7 days at 37° C. Samples were withdrawn at time 0, Day 1 and Day 7 and analyzed by SDS PAGE followed by detection using Western analysis and detection with antibodies against GFP as shown in FIG. 16A-FIG. 16C. […] The in vivo stability of the fusion protein was tested in plasma samples wherein the GFP_AE864 was immunoprecipitated and analyzed by SDS PAGE as described above.

Data set [3] can be described thus: Stability of XTEN_AE864-GFP incubated in monkey plasma. It is filed as in vitro ADME, cynomolgus monkey. Particulars: 37° C., 7 days. The procedure: as §1, §2

Chain of human CD40 (P25942 21-193 limits assumed): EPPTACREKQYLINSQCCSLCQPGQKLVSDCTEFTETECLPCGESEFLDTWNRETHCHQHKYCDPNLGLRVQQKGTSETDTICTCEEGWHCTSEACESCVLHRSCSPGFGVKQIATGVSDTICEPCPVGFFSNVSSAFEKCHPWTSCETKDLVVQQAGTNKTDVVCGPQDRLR

B1: AC342: aIL6R-XTEN binding fusion protein construct (protein)
chain: YQQKPGKAPKLLIYYTSRLHSGVPSRFSGSGSGTDFTFTISSLQPEDIATYYCQQGNTLPYTFGQGTKVEIKTGSGEGSEGEGGGEGSEGEGSGEGGEGEGSGSQVQLQESGPGLVRPSQTLSLTCTVSGYSITSDHAWSWVRQPPGRGLEWIGYISYSGITTYNPSLKSRVTMLRDTSKNQFSLRLSSVTAADTAVYYCARSLARTTAMDYWGQGSLVTVSSGSPGSPAGSPTSTEEGTSESATPESGPGTSTEPSEGSAPGSPAGSPTSTEEGTSTEPSEGSAPGTSTEPSEGSAPGTSESATPESGPGSEPATSGSETPGSEPATSGSETPGSPAGSPT
B1 gave an EC50 in the data set with human IL6R of 0.005 µM.

B2: AC385: anti-CD40-XTEN_AE864 scFv binding fusion protein (protein)
chain: QQKPGQAPRLLIYYASHSISGIPARFSGSGSGTDFTLTISSLEPEDFAVYYCQHGHSYPWTFGGGTKVEIKTGSGEGSEGEGGGEGSEGEGSGEGGEGEGSGTQVQLVQSGSELKKPGASVKVSCKASGYAFTTTGMQWVRQAPGQGLEWMGWINTHSGVPKYVEDFKGRFVFSLDTSVSTAYLQISSLKAEDTAVYYCARSGNGNYDLAYFKYWGQGTLVTVSSGGSPAGSPTSTEEGTSESATPESGPGTSTEPSEGSAPGSPAGSPTSTEEGTSTEPSEGSAPGTSTEPSEGSAPGTSESATPESGPGSEPATSGSETPGSEPATSGSETPGSPAGSPT
For the molecule B2, in the data set with human CD40, the dissociation constant Kd is about 0.05 µM.

B3: XTEN_AE864: fusion protein containing XTEN_AE864 fused to the N-terminus of GFP (protein)
chain: MAEPAGSPTSTEEGTPGSGTASSSPGSSTPSGATGSPGASPGTSSTGSPGGASASCAPSTGGGSPAGSPTSTEEGTSESATPESGPGTSTEPSEGSAPGSPAGSPTSTEEGTSTEPSEGSAPGTSTEPSEGSAPGTSESATPESGPGSEPATSGSETPGSEPATSGSETPGSPAGSPTSTEEGTSESATPESGPGTSTEPSEGSAPGTSTEPSEGSAPGSPAGSPTSTEEGTSTEPSEGSAPGTSTEPSEGSAPGTSESATPESGPGTSTEPSEGSAPGTSESATPESGPGSEPATSGSETPGTSTEPSEGSAPGTSTEPSEGSAPGTSESATPESGPGTSESATPESGPGSPAGSPTSTEEGTSESATPESGPGSEPATSGSETPGTSESATPESGPGTSTEPSEGSAPGTSTEPSEGSAPGTSTEPSEGSAPGTSTEPSEGSAPGTSTEPSEGSAPGTSTEPSEGSAPGSPAGSPTSTEEGTSTEPSEGSAPGTSESATPESGPGSEPATSGSETPGTSESATPESGPGSEPATSGSETPGTSESATPESGPGTSTEPSEGSAPGTSESATPESGPGSPAGSPTSTEEGSPAGSPTSTEEGSPAGSPTSTEEGTSESATPESGPGTSTEPSEGSAPGGASASCAPSTGGGSEPATSGSETPGTSESATPESGPGSEPATSGSETPGSPAGSPTSTEEGTSTEPSEGSAPGSEPATSGSETPGSEPATSGSETPGSEPATSGSETPGTSTEPSEGSAPGTSESATPESGPGSEPATSGSETPGTSTEPSEGSAPG
In the case of B3, in data set [1], the “degradation in rat kidney lysate” value is listed as “rapidly degraded”. Further, the degradation in vivo result in data set [2] is “very few signs of degradation”. Further, the degradation in plasma entry in data set [3] is “negligible signs of degradation”.

B4: AC384: anti-CD40-XTEN_AE864 scFv binding fusion protein (protein)
chain: QQKPGQAPRLLIYYASHSISGIPARFSGSGSGTDFTLTISSLEPEDFAVYYCQHGHSYPWTFGGGTKVEIKTGSGEGSEGEGGGEGSEGEGSGEGGEGEGSGTQVQLVQSGSELKKPGASVKVSCKASGYAFTTTGMQWVRQAPGQGLEWMGWINTHSGVPKYVEDFKGRFVFSLDTSVSTAYLQISSLKAEDTAVYYCARSGNGNYDLAYFKYWGQGTLVTVSSGGSPAGSPTSTEEGTSESATPESGPGTSTEPSEGSAPGSPAGSPTSTEEGTSTEPSEGSAPGTSTEPSEGSAPGTSESATPESGPGSEPATSGSETPGSEPATSGSETPGSPAGSP
Turning to B4, the Kd in the data set with human CD40 is about 0.05 µM.
